Test results as given in US20200262898A1 (INTEGRAL MOLECULAR, published 2020).

T1: CD59 (UniProt P13987 26-102, limits assumed)
T1 construct: whole, on cells
T1 sequence (looked up): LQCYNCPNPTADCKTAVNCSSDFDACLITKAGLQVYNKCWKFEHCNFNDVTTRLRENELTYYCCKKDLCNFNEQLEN


What was measured:
[1] = target: T2, Fc-binding protein (the ZZ domain of ProA); assay: flow cytometry on cells expressing the Fc-binding ZZ domain on their surface; given as a measure of expression
T2 construct: domain: ZZ domain of ProA; the construct is not described
From the text: (§1) Antibodies were generated using the common light chains B9, F10, C11, and H11 paired with 8 different heavy chains. […] Binding is expressed as Signal:Background for binding to the molecular target of the heavy chain antibody (listed at top of Table 4). Expression is based on binding to cells expressing an Fc-binding protein (the ZZ domain of ProA) (ZZ) on their surface, enabling total antibody to bind and be measured. Detection was using flow cytometry with cells transfected to express the target protein. Background binding S:B is normalized to 1.0, using mock-transfected cells as background. The data in the table below illustrate that the light chains can be used with a variety of heavy chains and the antibody generated from a VH that can bind to the light chains B9 and F10 will function and bind to the target of interest.

[2] = target: T1, CD59; assay: flow cytometry on cells transfected with the target; signal over mock-transfected cells (background = 1.0)
From the text: as §1

Row | S:B Expression [1] | S:B Binding [2] | Binder
1 | 11.8 S:B | 0.7 S:B | Antibody of common light chain B9 (B9chicken) paired with the heavy chain against CD59 (antibody, V domains shown, also called HC-CD59) VH: AVTLDESGGGLQTPGGGLSLVCKASGFDFSSFDMVWVRQAPGKGLEWVAGISYSNTDTSYAPAVDGRATISRDNGQSTVRLQLNNLRAEDSATYYCAKSAGGCCYRADNIDAWGHGTEVIVSS VL: ALTQPSSVSANPGETVKITCSGGGSSNYYGWYQQKSPGSAPVTLIYGTNKRPSDIPSRFSGSKSGSTGTLTITGVQADDEAVYFCGSADSSTNAGIFGAGTTLTVL
2 | 12.2 S:B | 1.4 S:B | Antibody of common light chain C11 (C11chicken) paired with the heavy chain against CD59 (antibody, V domains shown, also called HC-CD59) VH: AVTLDESGGGLQTPGGGLSLVCKASGFDFSSFDMVWVRQAPGKGLEWVAGISYSNTDTSYAPAVDGRATISRDNGQSTVRLQLNNLRAEDSATYYCAKSAGGCCYRADNIDAWGHGTEVIVSS VL: ALTQPSSVSANPGETVKITCSGGGSWYGSYYYGWYQQKSPGSAPVTLIYNNDKRPSDIPSRFSGSESGSTATLTITGVQAEDEAVYFCGGYDSTTTDMFGAGTTLTVL
